The results in this text go back to article PMC10531710, “Overexpression of the First Peanut-Susceptible Gene, AhS5H1 or AhS5H2, Enhanced Susceptibility to Pst DC3000 in Arabidopsis” (International Journal of Molecular Sciences, 2023).

In general, Km refers to the concentration of substrate that gives half-maximal velocity.

In one data set the test system is T1, O=C(O)c1ccccc1O.
T1 construct: full ORF 1014 bp, 338 residues as printed; modified pGEX (GST) vector with C-terminal 3xMyc; E. coli BL21(DE3); glutathione Sepharose purified; tag removal not mentioned
The experiment in a line: purified protein. The format is biochemical, Arachis hypogaea. The note with it: 1 mM 2-oxoglutarate, 1 mM ascorbate, 0.4 mM FeSO4, 0.1 mg/mL catalase, 5 mM DTT, 50 mM phosphate pH 6.8, 40 °C, 30 min.

Substrate in the data set “purified protein”: O=C(O)c1ccccc1O
Nature of the data set: purified protein. The format is biochemical, Arachis hypogaea. The note with it: 1 mM 2-oxoglutarate, 1 mM ascorbate, 0.4 mM FeSO4, 0.1 mg/mL catalase, 5 mM DTT, 50 mM phosphate pH 6.8, 40 °C, 30 min.

Take AhS5H2 (Arachis hypogaea): the Km with O=C(O)c1ccccc1O is on record as 190.52 ± 26.33 µM.

B1: AhS5H1 (Arachis hypogaea) (protein)
chain: MANTKPLLLADQVTNMKHIPLNFIRPLNDRPNLQNLQSSNDNNESIPIIDLQGLDEDNDASNRSQIIHNIGQACQDYGFFQIVNHGVPEDVVGKMMKVGKAFFDLPESERMKNYSDDPSKTTRLSTSFNVKTEKVANWRDFLRLHCHPLEDYIQEWPTNPPSFREDVGEYSKHMRKLSLKLLEAISESLGLEKDYMEKALGKHGQHMAINYYPPCPEPDLTYGLPAHADPNAITILLQNHVPGLQVLKDGHWVTVKHVPNTFIVNIGDQIQVISNDKYKSVLHRALVNCEKERMSIPTFYCPSPEALVGPAPQLIDQHNDPPKYTNFTYAEYYHKFWNRGLSKETCVDLFKV
notes: full ORF 1059 bp, 353 residues as printed; modified pGEX (GST) vector with C-terminal 3xMyc; E. coli BL21(DE3); glutathione Sepharose purified; tag removal not mentioned
As for B1, the Michaelis-Menten constant (Km) in the data set “purified protein” was found to be 44.72 ± 6.95 µM.
